Broadly, the Kd is the concentration at which binding is half-saturated. Lower therefore signals tighter binding. The term koff denotes a measure of how fast the partners let go of each other. The term kon denotes the second-order rate constant of association. Low readings indicate slower complex formation, high ones faster complex formation.

Data on 1 molecule can be found in US20210332152A1.

In one assay the target is human IgG (human). The assay is described as follows: SPR (BIAcore T200), peptide immobilised on sensor chip, human IgG injected. In general terms: Surface plasmon resonance follows binding to a sensor surface in real time, without labels.
Assay [1] concerns the target human serum-derived γ-globulin (Sigma-Aldrich) (human). The assay is described as follows: column chromatography; 0.5 mg synthetic peptide immobilised on NHS-activated column, 1 mg/mL γ-globulin fed, 10% breakthrough.

B1: peptide (amino acid sequence: SEQ ID NO: 18) prepared by chemical synthesis (peptide)
peptide: GPDCAYHRGELVWCTFH
Turning to B1, in the assay with human IgG (human), the Kd was 14 nM, the koff was found to be 0.0048 s⁻¹ and the kon amounted to 330000 M⁻¹ s⁻¹. Moreover, the dynamic binding capacity (DBC) in assay [1] was 6.9 mg/mL-column.
